Results from publication PMC2787765.

Target: αB-crystallin triply substituted analog (serine residues 19, 45 and 59 mutated to aspartic acids) (UniProt P02511)
Experiment: back-scattering interferometry

Substance: T4 lysozyme D70N (from UniProt P00720 1-164) (enzyme)
- KD1 (high affinity mode): 0.595 µM
- KD2 (low affinity mode): 29.1 µM
- kf1 (forward rate, high affinity mode): 25500 M⁻¹ s⁻¹
- kf2 (forward rate, low affinity mode): 2340 M⁻¹ s⁻¹
- kr1 (reverse rate, high affinity mode): 0.0152 s⁻¹
- reduction in magnitude of the steady-state BSI signal relative to T4L-L99A-A130S: 40%

Substance: T4 lysozyme L99A-A130S double mutant (from UniProt P00720 1-164) (enzyme)
- KD1 (high affinity mode): 0.132 µM
- KD2 (low affinity mode): 33 µM
- kf1 (forward rate, high affinity mode): 58500 M⁻¹ s⁻¹
- kf2 (forward rate, low affinity mode): 2970 M⁻¹ s⁻¹
- kr1 (reverse rate, high affinity mode): 5.03e-06 s⁻¹
- reverse rate, low affinity mode (row printed as kr1): 0.115 s⁻¹
